# Data taken from article PMC9756944.
# Test system: HupA (HU homologue) (Streptomyces coelicolor)
# Assay: EMSA (agarose)
# Conditions: Buffer B: 50 mM NaH2PO4 pH 8.1, 300 mM NaCl, 10% glycerol, 0-40 uM HupA, 120 ng (3.6 nM) pUC19, 3 min room temperature then 15 min 37 C, 1% agarose in TAE …
substance,measurement,setting,value
pUC19 negatively supercoiled,binding,"bound at 15 uM HupA, 3.6 nM plasmid, 300 mM NaCl",15 µM
pUC19 relaxed by E. coli topoisomerase I,binding,"relaxed by E. coli topoisomerase I (NEB), enzyme inactivated at 65 C",40 µM
